Reference: the supplement of paper PMC7877785
± gives the uncertainty stated by the source.

Assay: self-splicing fitness, log relative to wild type (ln ratio); higher = more splicing; Tetrahymena group I intron in knt gene, E. coli kanamycin selection, DiMSum; sequences stand for … in CUCUCU…GGAGGGAAAAGUUAUCAGGCAUGCACCUGGUAGCUAGUCUUUAAACCAAUAGAUUGCAUCGGUUUAAAAGGCAAGACCGUCAAAUUGCGGGAAAGGGGUCAACAGCCGUUCAGUACCAAGUCUCAGGGGAAACUUUGAGAUGGCCUUGCAAAGGGUAUGGUAAUAAGCUGACGGACAUGGUCCUAACCACGCAGCCAAGUCCUAAGUCAACAGAUCUUCUGUUGAUAUGGAUGCAGUUCACAGACUAAAUGUCGGUCGGGGAAGAUGUAUUCUUCUCAUAAGAUAUAGUCGGACCUCUCCUUAAUGGGAGCUAGCGGAUGAAGUGAUGCAACACUGGAGCCGCUGGGAACUAAUUUGUAUGCGAAAGUAUAUUGAUUAGUUUUGGAGUACUCGUGGUCG
Outline: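 A randomised library covering all eight P1ex-region intron nucleotides was built with the intron in the knt kanamycin-resistance gene on pET-22b(+) and held in E. coli BL21(DE3). Cells were grown overnight at 37°C or 30°C on LB agar, with or without 25 μg/mL kanamycin, plus 100 μg/mL carbenicillin, 50 μM IPTG and 0.2% rhamnose, and pooled colonies were amplicon-sequenced on an Illumina HiSeq 2500. DiMSum fitness is the error-weighted combination of wild-type-normalised replicate fold changes, kanamycin versus none.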

Sequence | self-splicing fitness (ln) (30 °C) | self-splicing fitness (ln) (37 °C)
AGCAAGCAAUAUUACGCUGC | -1.58 ± 0.2 | -3.1 ± 0.31
AGAAAGCAAUAUUACGGCAA | 0.0585 ± 0.1 | -0.187 ± 0.12
CUGCAGCAAUAUUACGGGUC | -3.51 ± 0.23 | -3.07 ± 0.31
AGAGAGCAAUAUUACGUCUC | -2.95 ± 0.43 | -3.37 ± 0.47
UGUUAGCAAUAUUACGAGCA | -0.725 ± 0.12 | -0.136 ± 0.17
AUUCAGCAAUAUUACGUAAC | -0.841 ± 0.17 | 1.08 ± 0.19
ACACAGCAAUAUUACGAGAU | -3.79 ± 0.16 | -0.784 ± 0.11
AUCAAGCAAUAUUACGAACG | -1.61 ± 0.13 | -0.462 ± 0.13
CGUUAGCAAUAUUACGGGGG | -4.81 ± 0.45 | -3.46 ± 0.29
ACCAAGCAAUAUUACGGUAU | -3.45 ± 0.13 | -0.475 ± 0.094
GAUGAGCAAUAUUACGCGUG | -0.71 ± 0.14 | -1.14 ± 0.16
CUAAAGCAAUAUUACGUAGU | -4.53 ± 0.2 | -2.59 ± 0.17
GUGAAGCAAUAUUACGAGAU | -2.25 ± 0.16 | -0.51 ± 0.19
CUAUAGCAAUAUUACGAGUC | -2.61 ± 0.24 | -2.52 ± 0.3
CGCCAGCAAUAUUACGCCAU |  | -2.11 ± 0.46
ACUGAGCAAUAUUACGUGGU | -4.07 ± 0.14 | -2.56 ± 0.13
GUGAAGCAAUAUUACGUACA | -0.778 ± 0.082 | 0.51 ± 0.12
GGCUAGCAAUAUUACGUGUC | -1.67 ± 0.18 | -1.26 ± 0.23
CCCCAGCAAUAUUACGAGAA | -3.4 ± 0.29 | -2.37 ± 0.23
AUAAAGCAAUAUUACGCCGU | 0.151 ± 0.11 | -0.694 ± 0.12
ACAAAGCAAUAUUACGUCGG | -2.14 ± 0.11 | -0.989 ± 0.12
UCAGAGCAAUAUUACGUGGG | -3.2 ± 0.16 | -1.96 ± 0.14
GUGUAGCAAUAUUACGCUGG | -3.59 ± 0.38 | -1.54 ± 0.22
CAGUAGCAAUAUUACGUUGG | -1.56 ± 0.075 | -0.932 ± 0.1
AAAUAGCAAUAUUACGAGAG | -4.01 ± 0.3 | -2.49 ± 0.28
GAGAAGCAAUAUUACGCAUA | -1.72 ± 0.13 | -1.01 ± 0.14

Sequence | self-splicing fitness (ln) (30 °C) | self-splicing fitness (ln) (37 °C)
CAGUAGCAAUAUUACGAUUC | -3.11 ± 0.22 | -2.27 ± 0.26
GGUUAGCAAUAUUACGGAAG |  | -2.49 ± 0.36
AACGAGCAAUAUUACGACCA | -2.23 ± 0.18 | -1.53 ± 0.19
CUAUAGCAAUAUUACGCGUG | -1.27 ± 0.1 | -0.122 ± 0.12
UCUUAGCAAUAUUACGGCGA | -0.253 ± 0.15 | -0.295 ± 0.13
UAUUAGCAAUAUUACGGUCA | -0.76 ± 0.1 | -0.0892 ± 0.095
CCCCAGCAAUAUUACGUAAG | -3.18 ± 0.12 | -1.33 ± 0.12
CGCCAGCAAUAUUACGCGAC | -3.18 ± 0.21 | -2.15 ± 0.17
UCGCAGCAAUAUUACGUCGU | -1.95 ± 0.081 | -0.965 ± 0.096
AGCUAGCAAUAUUACGACAC | -2.07 ± 0.15 | -1.11 ± 0.16
UUAUAGCAAUAUUACGGGUG | -1.68 ± 0.1 | -0.829 ± 0.12
UUCGAGCAAUAUUACGGUGC | -3.24 ± 0.31 | -2.29 ± 0.29
CGGGAGCAAUAUUACGGGUA | -2.54 ± 0.21 | -1.75 ± 0.2
CCGAAGCAAUAUUACGUCUA | -3.69 ± 0.35 | -2.25 ± 0.3
GAUCAGCAAUAUUACGACUG | -1.21 ± 0.082 | -0.166 ± 0.13
ACGCAGCAAUAUUACGCACA | -0.862 ± 0.11 | -0.0125 ± 0.12
CCGAAGCAAUAUUACGUUGC | -3.51 ± 0.21 | -2.66 ± 0.22
UUUGAGCAAUAUUACGGAUU | -3.69 ± 0.25 | -2.31 ± 0.2
AGCGAGCAAUAUUACGGCAU | -1.45 ± 0.12 | -0.286 ± 0.14
GAUCAGCAAUAUUACGUCGA | -1.35 ± 0.084 | -0.202 ± 0.096
GGAGAGCAAUAUUACGUGGU | -3.28 ± 0.16 | -3.01 ± 0.26
AUAUAGCAAUAUUACGUGUG | -3.82 ± 0.27 | -2.46 ± 0.18
AGUAAGCAAUAUUACGUCGU | -2.12 ± 0.13 | -0.496 ± 0.12
CUCAAGCAAUAUUACGCGCA | -2.95 ± 0.16 | -2.21 ± 0.15
AGACAGCAAUAUUACGGUGC | -2.82 ± 0.18 | -1.89 ± 0.18
AGGAAGCAAUAUUACGCCUU | -2.67 ± 0.2 | -0.955 ± 0.18

Sequence | self-splicing fitness (ln) (30 °C) | self-splicing fitness (ln) (37 °C)
UCCCAGCAAUAUUACGUUAC | -3.88 ± 0.22 | -2.72 ± 0.27
AGGCAGCAAUAUUACGCAGC | -4.21 ± 0.42 | -2.84 ± 0.31
UCACAGCAAUAUUACGUACU | -2.82 ± 0.17 | -2.09 ± 0.22
CUCGAGCAAUAUUACGUGCC | -3.35 ± 0.35 | 
AGUCAGCAAUAUUACGUUAC | -2.88 ± 0.16 | -2.36 ± 0.21
UUAAAGCAAUAUUACGUGGA | -2.45 ± 0.072 | -0.864 ± 0.073
UCGAAGCAAUAUUACGUGUC |  | -2.37 ± 0.37
GGACAGCAAUAUUACGAGAC | -2.05 ± 0.33 | -1.1 ± 0.16
GUCGAGCAAUAUUACGCACU | -1.47 ± 0.14 | -0.953 ± 0.18
GCUGAGCAAUAUUACGUGAA | -2.63 ± 0.22 | -1.35 ± 0.23
GCCCAGCAAUAUUACGGACG | -0.702 ± 0.07 | -0.133 ± 0.097
UGGAAGCAAUAUUACGAACU | 0.00939 ± 0.14 | -0.029 ± 0.13
AACGAGCAAUAUUACGCGGG | -3.64 ± 0.42 | -2.32 ± 0.22
UCGUAGCAAUAUUACGGGCG | -2.12 ± 0.18 | -1.11 ± 0.17
UUAAAGCAAUAUUACGGACG | 0.179 ± 0.079 | 0.835 ± 0.14
AGAAAGCAAUAUUACGACUC | -1.53 ± 0.21 | -0.214 ± 0.2
AUGCAGCAAUAUUACGUUAU | -2.45 ± 0.079 | -1.24 ± 0.078
UGCCAGCAAUAUUACGCCAG | -3.29 ± 0.18 | -2.39 ± 0.27
ACCGAGCAAUAUUACGUGUU | -3.76 ± 0.19 | -2.65 ± 0.24
CAGGAGCAAUAUUACGGCUU | -3.93 ± 0.23 | -2.15 ± 0.21
CGGGAGCAAUAUUACGCCGU | -3.46 ± 0.47 | 
CACGAGCAAUAUUACGCAGG | -3.49 ± 0.21 | -2.55 ± 0.2
GCGUAGCAAUAUUACGGUAC | -2.72 ± 0.25 | -1.44 ± 0.19
CUUGAGCAAUAUUACGGGGG | -2.81 ± 0.2 | -3.25 ± 0.39
CCGUAGCAAUAUUACGCGUU | -4.15 ± 0.39 | -2.86 ± 0.31
